This passage reports normalised SPOT signal, Boehringer light units (BLU); mean over the file's lines of this peptide results from PMC314469, “Protein Interaction Networks by Proteome Peptide Scanning” (PLoS Biology, 2004).

The assay deals with T1, Abp1 SH3 (ABP1_YEAST), P15891.
T1 chain: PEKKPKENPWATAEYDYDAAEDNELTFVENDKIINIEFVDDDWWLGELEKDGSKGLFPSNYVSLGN
The assay is described as follows: SPOT array.
On to KKISFNPVVTPIRP [YFR023W 33-46], for which the normalised SPOT signal, Boehringer light units (BLU); mean over the file's lines of this peptide came out at 0.

Turning to KPVAPTSTDAPAKP [YOL027C 66-79], the normalised SPOT signal, Boehringer light units (BLU); mean over the file's lines of this peptide came out at 45.8.

In the case of KLKELQTITVPGKP [YER124C 120-133], the normalised SPOT signal, Boehringer light units (BLU); mean over the file's lines of this peptide came to 131.

KRAKEYIANLPMRP [YGR040W 256-269] showed a normalised SPOT signal, Boehringer light units (BLU); mean over the file's lines of this peptide of 22.

KHSTDEKPNFTKP [YLR087C 2329-2341] showed a normalised SPOT signal, Boehringer light units (BLU); mean over the file's lines of this peptide of 125.

The molecule KGIIMDAKFHPFKP [YMR049C 639-652] displayed a normalised SPOT signal, Boehringer light units (BLU); mean over the file's lines of this peptide of 898.

KKIEAKKATRPSKP [YNL173C 323-336] yielded a normalised SPOT signal, Boehringer light units (BLU); mean over the file's lines of this peptide of 80.

Molecule KKPKLNKRVLPSKP [YLR183C 347-360] came in with a normalised SPOT signal, Boehringer light units (BLU); mean over the file's lines of this peptide of 128.

On to KPLININPYTRKP [YLR357W 223-235], for which the normalised SPOT signal, Boehringer light units (BLU); mean over the file's lines of this peptide came to 1140.

With KMQRYFRPIIVRP [YLR290C 188-200], the normalised SPOT signal, Boehringer light units (BLU); mean over the file's lines of this peptide was determined as 541.

KRKRSKGEVNPSKP [YPR137W 9-22]: the normalised SPOT signal, Boehringer light units (BLU); mean over the file's lines of this peptide came to 110.

As for KLQGSFNPEYIKP [YML072C 1243-1255], the normalised SPOT signal, Boehringer light units (BLU); mean over the file's lines of this peptide turned out to be 108.

Molecule KLGPISTSKSPKKP [YJL051W 233-246] had a normalised SPOT signal, Boehringer light units (BLU); mean over the file's lines of this peptide of 200.

In the case of KGVRNIMIPFPNRP [YOR093C 1313-1326], the normalised SPOT signal, Boehringer light units (BLU); mean over the file's lines of this peptide turned out to be 273.

The molecule KPGWVVYPPPPKP [YML035C 221-233] came in with a normalised SPOT signal, Boehringer light units (BLU); mean over the file's lines of this peptide of 154.

The molecule KHKQHKPKVKPSKP [YHL007C 233-246] displayed a normalised SPOT signal, Boehringer light units (BLU); mean over the file's lines of this peptide of 13.3.

Take KILDLKFPPKERP [YKL211C 326-338]: the normalised SPOT signal, Boehringer light units (BLU); mean over the file's lines of this peptide amounted to 257.

KELSRLTYYGPEKP [YLR305C 1008-1021] had a normalised SPOT signal, Boehringer light units (BLU); mean over the file's lines of this peptide of 116.

In the case of KQKNIYVISTPKRP [YLR398C 492-505], the normalised SPOT signal, Boehringer light units (BLU); mean over the file's lines of this peptide came out at 98.7.

In turn, KELKWADPRSFKP [YOR168W 156-168] showed a normalised SPOT signal, Boehringer light units (BLU); mean over the file's lines of this peptide of 378.

Molecule KETVTKQPTEEKP [YNL110C 11-23] had a normalised SPOT signal, Boehringer light units (BLU); mean over the file's lines of this peptide of 94.1.

KPTPPPKPSHLKP [YNL020C 608-620]: the normalised SPOT signal, Boehringer light units (BLU); mean over the file's lines of this peptide stood at 133000.

For KKKSSPATKVPSKP [YGL207W 456-469], the normalised SPOT signal, Boehringer light units (BLU); mean over the file's lines of this peptide was found to be 65.

Regarding KMISNRRPVPRRP [YPR091C 656-668], the normalised SPOT signal, Boehringer light units (BLU); mean over the file's lines of this peptide was determined as 6230.

KGFRFNLPPTDRP [YGR202C 91-103] returned a normalised SPOT signal, Boehringer light units (BLU); mean over the file's lines of this peptide of 166.

Molecule KGPDVEFLMIPFRP [YOR188W 88-101] returned a normalised SPOT signal, Boehringer light units (BLU); mean over the file's lines of this peptide of 114.

Molecule KKIKKKSPTGMKP [YOL075C 641-653] showed a normalised SPOT signal, Boehringer light units (BLU); mean over the file's lines of this peptide of 120.

On to KKQTQLSSTAPKKP [YGR056W 686-699], for which the normalised SPOT signal, Boehringer light units (BLU); mean over the file's lines of this peptide was determined as 34.9.

KNSDMMIPLDVKP [YOL081W 3046-3058] displayed a normalised SPOT signal, Boehringer light units (BLU); mean over the file's lines of this peptide of 89.

For KIQELYLPHMSRP [YMR131C 92-104], the normalised SPOT signal, Boehringer light units (BLU); mean over the file's lines of this peptide is 166.

For KQQQEQQNKAPEKP [YGL105W 191-204], the normalised SPOT signal, Boehringer light units (BLU); mean over the file's lines of this peptide is 97.5.

In turn, KIGLIQFQISPPKP [YDL143W 233-246] registered a normalised SPOT signal, Boehringer light units (BLU); mean over the file's lines of this peptide of 40.5.

In turn, KNDGSSSFVKPRRP [YNL215W 286-299] came in with a normalised SPOT signal, Boehringer light units (BLU); mean over the file's lines of this peptide of 202.

KKLLLKGYIPPYKP [YMR104C 605-618] yielded a normalised SPOT signal, Boehringer light units (BLU); mean over the file's lines of this peptide of 95.9.

KKLSSSMPNSPKKP [YDL117W 113-126] displayed a normalised SPOT signal, Boehringer light units (BLU); mean over the file's lines of this peptide of 153.

Molecule KIEGSIPENEPSKP [YHR102W 306-319] returned a normalised SPOT signal, Boehringer light units (BLU); mean over the file's lines of this peptide of 97.5.

KEYTRFNQIFPKKP [YDR182W 159-172] registered a normalised SPOT signal, Boehringer light units (BLU); mean over the file's lines of this peptide of 54.

For KPEYFPFPIYDKP [YBR086C 485-497], the normalised SPOT signal, Boehringer light units (BLU); mean over the file's lines of this peptide is 96.4.

In turn, KHAAKIDLVEPVKP [YBR261C 84-97] came in with a normalised SPOT signal, Boehringer light units (BLU); mean over the file's lines of this peptide of 121.

KKEYSETFYHPYKP [YPL008W 3-16] registered a normalised SPOT signal, Boehringer light units (BLU); mean over the file's lines of this peptide of 109.

Consider KFSSDNDPLQYRP [YBR033W 108-120], for which the normalised SPOT signal, Boehringer light units (BLU); mean over the file's lines of this peptide worked out at 71.3.

KLKITRNPNPSKP [YHR208W 27-39]: the normalised SPOT signal, Boehringer light units (BLU); mean over the file's lines of this peptide is 245.

Turning to KKSRSTGFKNPLRP [YML061C 150-163], the normalised SPOT signal, Boehringer light units (BLU); mean over the file's lines of this peptide stood at 184.

KFMSAIKPANQKP [YAL024C 394-406]: the normalised SPOT signal, Boehringer light units (BLU); mean over the file's lines of this peptide worked out at 2680.

Molecule KPFNPTLPEGIRP [YJL050W 736-748] had a normalised SPOT signal, Boehringer light units (BLU); mean over the file's lines of this peptide of 87.3.

In turn, KRESLNQPSTTKP [YHR084W 174-186] returned a normalised SPOT signal, Boehringer light units (BLU); mean over the file's lines of this peptide of 134.

In turn, KLYYVLYSSLPSKP [YGR216C 582-595] had a normalised SPOT signal, Boehringer light units (BLU); mean over the file's lines of this peptide of 0.4.

As to KGMENELPFMKRP [YIL077C 15-27], the normalised SPOT signal, Boehringer light units (BLU); mean over the file's lines of this peptide stood at 332.

On to KMIMKLIPKDVKP [YJL131C 312-324], for which the normalised SPOT signal, Boehringer light units (BLU); mean over the file's lines of this peptide stood at 1480.

KLDIISDPESERP [YGL004C 356-368]: the normalised SPOT signal, Boehringer light units (BLU); mean over the file's lines of this peptide stood at 107.

In the case of KKPASKAPAEKKP [YBL002W 7-19], the normalised SPOT signal, Boehringer light units (BLU); mean over the file's lines of this peptide came to 174.

On to KLHFSSFPNDIRP [YER097W 23-35], for which the normalised SPOT signal, Boehringer light units (BLU); mean over the file's lines of this peptide came out at 396.

For the molecule KKHNSWVPKWLKP [YFL034W 914-926], the normalised SPOT signal, Boehringer light units (BLU); mean over the file's lines of this peptide was determined as 194.

In the case of KNYDVIVPNVWRP [YML115C 378-390], the normalised SPOT signal, Boehringer light units (BLU); mean over the file's lines of this peptide was found to be 15.7.
